In article PMC7679444 one finds percent of parent data, which are given here for 72 variants.

B1: TMEM59 peptide (residues 268–280), wild type [modified: long spacer (Tds) at the N-terminal end, used for immobilisation; long spacer (Tds) at the N-terminal end, used for immobilisation] [not stated] / GST-HA-ATG16L1(231–607) … (parent)
chain 1: PLPVEQDDDIEVIVDETSDHTEETSPVRAISRAATKRLSQPAGGLLDSITNIFGRRSVSSFPVPQDNVDTHPGSGKEVRVPATALCVFDAHDGEVNAVQFSPGSRLLATGGMDRRVKLWEVFGEKCEFKGSLSGSNAGITSIEFDSAGSYLLAASNDFASRIWTVDDYRLRHTLTGHSGKVLSAKFLLDNARIVSGSHDRTLKLWDLRSKVCIKTVFAGSSCNDIVCTEQCVMSGHFDKKIRFWDIRSESIVREMELLGKITALDLNPERTELLSCSRDDLLKVIDLRTNAIKQTFSAPGFKCGSDWTRVVFSPDGSYVAAGSAEGSLYIWSVLTGKVEKVLSKQHSSSINAVAWSPSGSHVVSVDKGCKAVLWAQY
chain 2: YVPSEKLSIYGDL

Variants of B1 are the subject of the test. The experiment in a line: peptide microarray. Conditions: with GST-HA-ATG16L1(231–607) [human], parent: 100.

Take chain 2 S8P: the percent of parent was found to be 50 % WT (ligand 200, 50, 20 nM) and 78 % WT (ligand 800, 600, 400 nM).

Turning to chain 2 S8W, the percent of parent (ligand 800, 600, 400 nM) came to 179 % WT.

On to chain 2 S8H, for which the percent of parent by setting is: (ligand 200, 50, 20 nM) 124 % WT; (ligand 800, 600, 400 nM) 115 % WT.

On to chain 2 S8A, for which the percent of parent was found to be 55 % WT (ligand 200, 50, 20 nM) and 59 % WT (ligand 800, 600, 400 nM).

Turning to chain 2 I9P, where the note is “ligand 800, 600, 400 nM”, the percent of parent came out at 89 % WT.

For the variant chain 2 I9S, for the setting “ligand 800, 600, 400 nM”, the percent of parent was 61 % WT.

Consider chain 2 I9D, for which the percent of parent (ligand 800, 600, 400 nM) turned out to be 15 % WT.

With chain 2 I9L, under “ligand 800, 600, 400 nM”, the percent of parent came out at 95 % WT.

Consider chain 2 I9F, for which the percent of parent (ligand 800, 600, 400 nM) was determined as 159 % WT.

Consider chain 2 I9Y, for which the percent of parent (ligand 800, 600, 400 nM) turned out to be 198 % WT.

With chain 2 I9Q, the percent of parent (ligand 800, 600, 400 nM) amounted to 102 % WT.

As to chain 2 I9A, under “ligand 800, 600, 400 nM”, the percent of parent stood at 76 % WT.

chain 2 I9N: the percent of parent (ligand 800, 600, 400 nM) was determined as 51 % WT.

For chain 2 I9T, the percent of parent (ligand 800, 600, 400 nM) was found to be 49 % WT.

Regarding chain 2 I9M, for the setting “ligand 800, 600, 400 nM”, the percent of parent stood at 66 % WT.

Regarding chain 2 I9G, the percent of parent (ligand 800, 600, 400 nM) came out at 39 % WT.

With chain 2 I9E, for the setting “ligand 800, 600, 400 nM”, the percent of parent stood at 96 % WT.

For chain 2 I9W, the percent of parent (ligand 800, 600, 400 nM) was 200 % WT.

As to chain 2 I9K, under “ligand 800, 600, 400 nM”, the percent of parent turned out to be 149 % WT.

As to chain 2 I9H, the percent of parent (ligand 800, 600, 400 nM) came out at 145 % WT.

As for chain 2 I9V, the percent of parent (ligand 800, 600, 400 nM) was 109 % WT.

As for chain 2 I9R, the percent of parent (ligand 800, 600, 400 nM) stood at 93 % WT.

Take chain 2 Y1G: the percent of parent was determined as 94 % WT (ligand 200, 50, 20 nM) and 92 % WT (ligand 800, 600, 400 nM).

Regarding chain 2 Y1H, the percent of parent (ligand 200, 50, 20 nM) was 30 % WT and the percent of parent (ligand 800, 600, 400 nM) was determined as 28 % WT.

chain 2 Y1E: the percent of parent turned out to be 13 % WT (ligand 200, 50, 20 nM) and 13 % WT (ligand 800, 600, 400 nM).

With chain 2 Y1M, the percent of parent is, setting by setting: (ligand 200, 50, 20 nM) 12 % WT; (ligand 800, 600, 400 nM) 10 % WT.

In the case of chain 2 Y1S, the percent of parent reads like this: (ligand 200, 50, 20 nM) 29 % WT; (ligand 800, 600, 400 nM) 28 % WT.

With chain 2 Y1Q, the percent of parent (ligand 200, 50, 20 nM) is 10 % WT and the percent of parent (ligand 800, 600, 400 nM) came to 12 % WT.

Turning to chain 2 Y1L, the percent of parent (ligand 200, 50, 20 nM) was found to be 44 % WT and the percent of parent (ligand 800, 600, 400 nM) amounted to 41 % WT.

Take chain 2 Y1A: the percent of parent runs as follows: (ligand 200, 50, 20 nM) 17 % WT; (ligand 800, 600, 400 nM) 18 % WT.

For chain 2 Y1D, the percent of parent is, setting by setting: (ligand 200, 50, 20 nM) 10 % WT; (ligand 800, 600, 400 nM) 12 % WT.

As to chain 2 Y1V, the percent of parent (ligand 200, 50, 20 nM) is 15 % WT and the percent of parent (ligand 800, 600, 400 nM) was found to be 16 % WT.

Regarding chain 2 Y1W, the percent of parent is, setting by setting: (ligand 200, 50, 20 nM) 120 % WT; (ligand 800, 600, 400 nM) 121 % WT.

As for chain 2 Y1F, the percent of parent worked out at 139 % WT (ligand 200, 50, 20 nM) and 121 % WT (ligand 800, 600, 400 nM).

As for chain 2 Y1T, the percent of parent is, setting by setting: (ligand 200, 50, 20 nM) 17 % WT; (ligand 800, 600, 400 nM) 17 % WT.

For chain 2 Y1R, the percent of parent reads like this: (ligand 200, 50, 20 nM) 12 % WT; (ligand 800, 600, 400 nM) 17 % WT.

chain 2 Y1K: the percent of parent reads like this: (ligand 200, 50, 20 nM) 17 % WT; (ligand 800, 600, 400 nM) 19 % WT.

chain 2 Y1N: the percent of parent runs as follows: (ligand 200, 50, 20 nM) 21 % WT; (ligand 800, 600, 400 nM) 22 % WT.

As to chain 2 Y1I, the percent of parent was found to be 75 % WT (ligand 200, 50, 20 nM) and 79 % WT (ligand 800, 600, 400 nM).

As for chain 2 Y1P, the percent of parent was 16 % WT (ligand 200, 50, 20 nM) and 17 % WT (ligand 800, 600, 400 nM).

Consider chain 2 L13V, for which the percent of parent (ligand 800, 600, 400 nM) turned out to be 123 % WT.

Take chain 2 L13T: the percent of parent (ligand 800, 600, 400 nM) was determined as 5 % WT.

As for chain 2 L13G, for the setting “ligand 800, 600, 400 nM”, the percent of parent worked out at 54 % WT.

Take chain 2 L13Y: the percent of parent (ligand 800, 600, 400 nM) was 201 % WT.

On to chain 2 L13H, for which the percent of parent (ligand 800, 600, 400 nM) is 66 % WT.

For chain 2 L13W, where the note is “ligand 800, 600, 400 nM”, the percent of parent came to 196 % WT.

For chain 2 L13R, the percent of parent (ligand 800, 600, 400 nM) worked out at 48 % WT.

Turning to chain 2 L13Q, the percent of parent (ligand 800, 600, 400 nM) was determined as 37 % WT.

Consider chain 2 L13S, for which, under “ligand 800, 600, 400 nM”, the percent of parent is 32 % WT.

chain 2 L13A: the percent of parent (ligand 800, 600, 400 nM) stood at 50 % WT.

For chain 2 L13K, where the note is “ligand 800, 600, 400 nM”, the percent of parent is 21 % WT.

As to chain 2 L13D, the percent of parent (ligand 800, 600, 400 nM) came out at 27 % WT.

For the variant chain 2 L13P, the percent of parent (ligand 800, 600, 400 nM) was found to be 94 % WT.

With chain 2 L13N, the percent of parent (ligand 800, 600, 400 nM) stood at 30 % WT.

As to chain 2 L13E, the percent of parent (ligand 800, 600, 400 nM) was 60 % WT.

Take chain 2 L13I: the percent of parent (ligand 800, 600, 400 nM) stood at 177 % WT.

For chain 2 L13M, the percent of parent (ligand 800, 600, 400 nM) was 36 % WT.

With chain 2 L13F, the percent of parent (ligand 800, 600, 400 nM) is 173 % WT.

As to chain 2 Y10S, the percent of parent (ligand 800, 600, 400 nM) came out at 3 % WT.

On to chain 2 Y10E, for which, for the setting “ligand 800, 600, 400 nM”, the percent of parent turned out to be 2 % WT.

For chain 2 Y10N, where the note is “ligand 800, 600, 400 nM”, the percent of parent was 3 % WT.

For the variant chain 2 Y10T, the percent of parent (ligand 800, 600, 400 nM) stood at 4 % WT.

For the variant chain 2 Y10L, where the note is “ligand 800, 600, 400 nM”, the percent of parent was found to be 36 % WT.

For the variant chain 2 Y10I, the percent of parent (ligand 800, 600, 400 nM) stood at 21 % WT.

In the case of chain 2 Y10F, the percent of parent (ligand 800, 600, 400 nM) came to 106 % WT.

On to chain 2 Y10P, for which, under “ligand 800, 600, 400 nM”, the percent of parent turned out to be 3 % WT.

Take chain 2 Y10D: the percent of parent (ligand 800, 600, 400 nM) turned out to be 4 % WT.

chain 2 Y10H: the percent of parent (ligand 800, 600, 400 nM) is 3 % WT.

With chain 2 Y10A, the percent of parent (ligand 800, 600, 400 nM) was 4 % WT.

Regarding chain 2 Y10V, the percent of parent (ligand 800, 600, 400 nM) was 9 % WT.

On to chain 2 Y10W, for which the percent of parent (ligand 800, 600, 400 nM) was found to be 135 % WT.

With chain 2 Y10M, the percent of parent (ligand 800, 600, 400 nM) stood at 3 % WT.
